Experimental data reported in patent US20260176659A1, “IMPROVED METHOD FOR THE PRODUCTION OF NATURAL VANILLIN” (BASE SE, priority 2022, published 2026).
Where “and” joins values, the source holds several entries; their conditions need not be identical. Equal values may be shown once.

Experiments:
Assay type in all cases: biochemical
[1] = Biotransformation of eugenol to coniferyl alcohol by EUGO (50 mM scale)
Description: The biotransformation (total volume 3 mL) was performed in a 10 mL round bottom flask with a stir bar. Eugenol (0.023 mL, 25 mg, 0.15 mmol, 1.0 equiv., 50 mM final conc.) was dissolved in DMSO or ethanol (0.150 mL). Then, the solution was diluted with Tis-HCl buffer (50 mM, pH 8.0, 2.827 mL). To obtain a homogeneous dispersion of the eugenol droplets, the mixture was stirred for about 15-20 mins. Then bovine liver catalase (Sigma P #C40, 30 mg, 2300 kU) and EUGO (30 mg of freeze-dried cell free extract, Tris base salt content was neglected) were added consecutively (note: EUGO was added after the catalase was completely dissolved). The reaction was incubated at room temperature and gentle stirring (40 rpm) for 17-24 hours. At certain time points, samples (0.1 mL) were diluted with methanol (0.8 mL, 8 vol equiv.) for stopping the reaction. The samples were centrifuged at 20238×g for 10 mins and the supernatant was analyzed by HPLC. When the reaction was completed, the products were extracted with ethyl acetate (3×1.5 mL EtOAc, in 2 mL microcentrifuge tubes). The aqueous and organic phases were separated by centrifugation (20238×g for ˜3 mins). Then, the organic phase was dried with NaSO4 and concentrated under reduced pressure (40° C., 200 mbar), but not dried completely to avoid polymerization. The concentrate was directly purified by silica gel chromatography (10 mL column volume) using a mixture of 1:1 etylacetate:cyclohexane as eluent. Fractions containing coniferyl alcohol (according to TLC) were combined and concentrated under reduced pressure (40° C., 200 mbar). Final drying under high vacuum (1.5 mbar) and inert gas flow yielded the title compound as yellowish solid (24.2 mg, 0.134 mmol, 90% yield). Notes: The obtained product was stored at −20° C. under inert gas atmosphere. Evaporation of a product solution in chloroform induced polymerization, therefore, no crude NMR was taken before product purification.

[2] = Bioconversion of eugenol to vanillin: one-pot concurrent cascade EUGO + alkene cleavage oxygenase (5 mM scale); conditions: for Reaction composition at 24 hours (%) 1a / Reaction composition at 24 hours (%) 2a / Reaction composition at 24 hours (%) 3a / Reaction composition at 24 hours (%) 5a / Conversion of 1a to 3a (%): EUGO fresh CFE 1 mg/mL, IECO 0 mg/mL; for Conversion of 1a to 3a (%): 24 h; for Product distribution after 24 hours 2a (%) / Product distribution after 24 hours 3a (%) / Product distribution after 24 hours 5a (%): Table 8b, CO-0X FD-CFE 1 mg/mL; for Product distribution after 24 hours 2a (%) / Product distribution after 24 hours 3a (%) / Product distribution after 24 hours 5a (%) / Reaction composition after 24 hours 1a (%) / Reaction composition after 24 hours 2a (%) / Reaction composition after 24 hours 3a (%) / Reaction composition after 24 hours 5a (%): EUGO FD-CFE 1 mg/mL, catalase 10 mg/mL, eugenol 5 mM; for Reaction composition after 24 hours 1a (%) / Reaction composition after 24 hours 2a (%) / Reaction composition after 24 hours 3a (%) / Reaction composition after 24 hours 5a (%): Table 8a, CO-XX FD-CFE 1 mg/mL
Description: Stock solutions of eugenol (100 mM) were prepared in ethanol or DMSO and stored at −20° C. Unless otherwise stated, the reaction mixtures (0.5 mL) were set up in 1.5 mL glass vials as follows: freeze-dried cell free extract of IECO/CO-XX (3 mg) and EUGO (0.5 mg) were dissolved in the reaction buffer (50 mM glycine-NaOH pH 9.0) containing sodium ascorbate (1 mM), FeSO4 (1 mM) and bovine liver catalase (5 mg, Sigma Aldrich C40). The reaction was initiated by the addition of 0.025 mL eugenol stock (final concentration 5 mM), then incubated at 30° C. and 120 rpm overnight (rotary shaker). The final content of cosolvent was 5% v/v. To improve oxygenation, the vials were placed horizontally. At certain time points, samples (0.2 mL) were quenched with methanol (0.4 mL) and the mixture was centrifuged at 20238 g for 5-10 mins. Finally, the supernatant was analysed by HPLC.
EUGO (0.5 mg CFE), CO-25 (3 mg CFE) and catalase (5 mg, Sigma product #C40) were dissolved in 50 mM Glycine-NaOH pH 9.0 or Tris-HCl pH 8.0 together with FeSO4 (1 mM) and sodium ascorbate (1 mM). Note that the buffer content of the freeze-dried biocatalyst prep was not considered for the assembling of the reaction. The reaction was started by the addition of 5 mM eugenol from a 20× stock in ethanol. The reactions—performed in glass vials—were then incubated at 30° C. and 120 rpm (25 mm shaker). Finally, samples of the reaction mixture were diluted with MeOH and analyzed by HPLC at 280 and 340 nm.

[3] = Spectrophotometric enzymatic assay: cleaving activity, production of vanillin from coniferyl alcohol at 349 nm; conditions: spectrophotometric assay
Description: Stock solution 200× of coniferyl alcohol (90 mg) was prepared in ethanol (5 mL) and stored at −20° C. From this, a new stock solution 20× of coniferyl alcohol (10 mM) was freshly prepared by 1:10 dilution in Glycine-NaOH (50 mM, pH 9.0). A cuvette containing 0.750 mL Glycine-NaOH (50 mM, pH 9.0) and 0.05 mL of the substrate 20× stock was pre-warmed at 25° C. for 1.5 mins. Then, the reaction was initiated by the addition of 0.2 mL of the enzyme sample. The cleaving […] activity was measured spectrophotometrically following the production of vanillin at 349 nm (ε349=26.7 mM^−1cm^−1 experimentally determined). One unit of activity (U) is defined as the amount of enzyme required to produce 1 μmol of vanillin per min. Agilent Cary 60 UV-Vis Spectrophotometer was used for all the measurements.
Searching for alternative novel alkene cleavage oxygenases (COs) catalysing the formation of vanillin from coniferyl alcohol was performed. A set of 27 sequences and 10 COs from different branches of the phylogenetic tree were selected, named CO-02-11. Two additional enzymes were included, which are located in different clusters of the phylogenetic tree: Lignostillbene dioxygenase from Pseudomonas brassicaceraum (PbLSD, PDB: 5V2D) and aromatic dioxygenase (Ado, CO-01) from Thermothelomyces thermophilus (GenBank ID: XP_003665585). The proteins were recombinantly expressed in E. coli BL21(DE3), following the same protocol developed for IECO. […] Putative COs were screened by spectrophotometric assay, monitoring the formation of 3a upon 2a cleavage. From a set of twelve COs, four positive hits, namely CO-01, CO-03, CO-06 and CO-07 were found. Positive variants were tested in the one pot cascade and compared them with IECO In agreement with the spectrophotometric screening, all four COs converted eugenol 1a to vanillin 3a (Table 8). The first step of the cascade is efficiently performed by EUGO, and the substrate is completely consumed. […] Overall, 70±3% conversion of 1a to vanillin 3a was achieved.

[4] = EUGO FD-CFE 10 mg/mL, eugenol 50 mM, catalase 10 mg/mL, pH 8.0, 5% v/v DMSO, room temperature, 17 hours
[5] = EUGO FD-CFE 10 mg/mL, eugenol 50 mM, catalase 10 mg/mL, pH 8.0, 5% v/v DMSO, room temperature, 24 hours

B1: EUGO: eugenol oxidase from Rhodococcus jostii (Uniprot: Q0SBK1), SEQ ID NO: 2, used as cell free extract (protein)
chain: MTRTLPPGVSDERFDAALQRFRDVVGDKWVLSTADELEAFRDPYPVGAAEANLPSAVVSPESTEQVQDIVRIANEYGIPLSPVSTGKNNGYGGAAPRLSGSVIVKTGERMNRILEVNEKYGYALLEPGVTYFDLYEYLQSHDSGLMLDCPDLGWGSVVGNTLDRGVGYTPYGDHFMWQTGLEVVLPQGEVMRTGMGALPGSDAWQLFPYGFGPFPDGMFTQSNLGIVTKMGIALMQRPPASQSFLITFDKEEDLEQIVDIMLPLRINMAPLQNVPVLRNIFMDAAAVSKRTEWFDGDGPMPAEAIERMKKDLDLGFWNFYGTLYGPPPLIEMYYGMIKEAFGKIPGARFFTHEERDDRGGHVLQDRHKINNGIPSLDELQLLDWVPNGGHIGFSPVSAPDGREAMKQFEMVRNRANEYNKDYAAQFIIGLREMHHVCLFIYDTAIPEAREEILQMTKVLVREAAEAGYGEYRTHNALMDDVMATFNWGDGALLKFHEKIKDALDPNGIIAPGKSGIWSQRFRGQNL
modifications: cell free extract; Rhodococcus Jostii
2a [1, 4]: 48 mM and 41 mM
Reaction composition (%) 2a [1, 4]: 95% and 76%
Reaction composition (%) 5a [1, 4]: 4% and 3%
2a [1, 5]: 50 mM
Reaction composition (%) 1a [1, 5]: 0%
Reaction composition (%) 2a [1, 5]: 95%
Reaction composition (%) 5a [1, 5]: 5%
time within which the substrate was consumed ([1]; EUGO cell free extract, 50 mM 1a): ≤ 24 h
Reaction composition at 24 hours (%) 1a ([2]; cosolvent DMSO 5% v/v, 5 mM 1a): 1≤ %
Reaction composition at 24 hours (%) 2a ([2]; cosolvent DMSO 5% v/v, 5 mM 1a): 96%
Reaction composition at 24 hours (%) 3a ([2]; cosolvent DMSO 5% v/v, 5 mM 1a): 1≤ %
Reaction composition at 24 hours (%) 5a ([2]; cosolvent DMSO 5% v/v, 5 mM 1a): 2%
Conversion of 1a to 3a (%) ([2]; cosolvent DMSO 5% v/v, 5 mM 1a): 1≤ %
Reaction composition at 24 hours (%) 1a ([2]; cosolvent EtOH 5% v/v, 5 mM 1a): 1≤ %
Reaction composition at 24 hours (%) 2a ([2]; cosolvent EtOH 5% v/v, 5 mM 1a): 97%
Reaction composition at 24 hours (%) 3a ([2]; cosolvent EtOH 5% v/v, 5 mM 1a): 1≤ %
Reaction composition at 24 hours (%) 5a ([2]; cosolvent EtOH 5% v/v, 5 mM 1a): 2%
Conversion of 1a to 3a (%) ([2]; cosolvent EtOH 5% v/v, 5 mM 1a): 1≤ %
time in which the oxidation step (1a to 2a) occurs ([2]; one pot concurrent cascade EUGO-IECO, 5 mM 1a, time studies): within the first two hours

B2: CO-24: alkene cleavage oxygenase, Pseudomonas ogarae, SEQ ID NO: 132 (protein, listed as Pseudomonas ogarae)
chain: MSIPFPQTPEFSGVLYTPSRVEAEVFDLEIEGILPASICGTFYQVAPDPQYPPMLGNDIFFNGDGVVSRFNFANGKVSMRRRYVKTDRLLAQRREGRSLNGVYRNVYTNDPLAAKNNTTANTTVIPHNGVLLALKEDALPWALDLETLETLGEWTFDGQIKAATFTAHPKLDPVTGNLLACSYEAKGDGTPDLAYFEISPDGKLLHEIWFQAPYAAMVHDFAVTERYVVFPLIPLTVDVERMKNGGPHFQWQPDLPQLFAIVPRNGCGQDVRWFKGPKDGFQGHTLNAFDEDGKVYVDMPVTGGNIFYFFPQADGYVPPPETLAASLMRWTFDLNGAQEDVQPQPLTEYPCEFPRCDDRYIGRKYQHGFLLAFDPERPYNPANGPIPFQFFNLLAHLDLQTGRTDAWFPGDSGCFQEPIFIPRSADAEEADGYVVALLNLIAEGRSELVVLDTRDMASGPIARIRIPFRMRMSLHGCWAPND
Product distribution after 24 hours 2a (%) ([2]; pH 8.0): 78.5%
Product distribution after 24 hours 3a (%) ([2]; pH 8.0): 6.1%
Product distribution after 24 hours 5a (%) ([2]; pH 8.0): 15.4%
Product distribution after 24 hours 2a (%) ([2]; pH 9.0): 73.9%
Product distribution after 24 hours 3a (%) ([2]; pH 9.0): 5.6%
Product distribution after 24 hours 5a (%) ([2]; pH 9.0): 20.5%

B3: CO-01: aromatic dioxygenase from Thermothelomyces thermophilus (GenBank XP_003665585), SEQ ID NO: 26 (protein, listed as Thermothelomyces thermophilus)
chain: MAHIHDLAPEVSNYSSGRLTPPTPVRFPRTPVFASMNKPCRFEGDVFDLEVSGAIPPDIDGTFFRVQPDHRFPPLFEDDIHFNGDGSVTAIRISGGHADLRQRYVRTERYLLETRARRSLFGRYRNPWTDNESVRGVIRTASNTNVVFWRGALLAMKEDGPPFAMDPVTLETLGRYDFEGQILSPTFTAHPKIDPDTGEMVCFAYEAGGDGSDCSVDVAVWTVDADGKKVEECWYKAPFAGMIHDCGITKNWVVLPLTPIKMDLERMKRGGNKFAWDPSEDQWYGVVPRRGAKSDDIIWFRADNGFHGHVAGCYELPSGEIVFDLTVADGNVFFFFPPDDNITPPADGVAKRNRLSSPTVRWIFDPKAKKSAIRTEAAGDADIWVADERVKPALTWPTNGEFSRIDDRYVTKPYRHFWQAVVDPTRPYDFEKCGPPAGGLFNCLGHYTWSDQNYHHGHNTGDPSGDGRSNGSAEEATAGKFGLQDVYFAGPTMTFQEPTFIPRQGAAEGEGYLIALLNHLDELRNDVVIFEARNLGKGPLAVIHLPLKLKLGLHGNWVDSREIEAWRRRRAENGDVGPLRVAKEPLPWQKKFAAAAQNGSNGV
Screening of putative COs: formation of 3a upon 2a cleavage (hit or inactive) [3]: positive hits
Reaction composition after 24 hours 1a (%) ([2]; pH 8.0): ≤1%
Reaction composition after 24 hours 2a (%) ([2]; pH 8.0): 74%
Reaction composition after 24 hours 3a (%) ([2]; pH 8.0): 9%
Reaction composition after 24 hours 5a (%) ([2]; pH 8.0): 17%
Reaction composition after 24 hours 1a (%) ([2]; pH 9.0): 51%
Reaction composition after 24 hours 2a (%) ([2]; pH 9.0): 63%
Reaction composition after 24 hours 3a (%) ([2]; pH 9.0): 13%
Reaction composition after 24 hours 5a (%) ([2]; pH 9.0): 24%
